# In the supplement of paper PMC9732359:
# ± gives the uncertainty stated by the source.
# Experiment: protein stability index of a GFP-peptide fusion (yeast GPS) (PSI 1-4); higher = more stable; sorted into four equal gates, so the index is relative within each strain
# Outline: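 The protein stability index combines read frequencies across sorting gates, each weighted by its gate number and then summed. To obtain those frequencies, a pooled yeast library of GFP fusions to tiled 17-residue yeast protein peptides, on a plasmid also expressing Cherry, was grown to mid-log phase in leucine-free medium. The cells were sorted into four equal gates by GFP/Cherry ratio before plasmid amplification by PCR and Illumina sequencing.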
Sequence,protein stability index (doa10∆),protein stability index (pdr5∆),protein stability index (ubr1∆),protein stability index (san1∆)
ENVQIGEDFMEVDYEDK [SRB4],3.48 ± 0.13,1.97 ± 0.17,2.2 ± 0.084,–
TNLKNHPAYLFKGLETP [YLR018C/POM34],2.38 ± 0.055,2.51 ± 0.039,2.36 ± 0.028,1.59 ± 0.061
VSVPVSGQKTNRQVMHK [SIR3],2.58 ± 0.13,3.27 ± 0.14,2.86 ± 0.17,3.05 ± 0.13
KHIKNLEDDSLLSYPIK [RPN12],2.9 ± 0.047,2.44 ± 0.033,2.617 ± 0.026,2.56 ± 0.045
DDKLAYIRVNHADKDTF [POP8],2.9 ± 0.059,2.58 ± 0.059,2.62 ± 0.049,2.72 ± 0.063
LKIFLYLESLFAKQVDV [IRR1],2.51 ± 0.093,2.19 ± 0.073,2.53 ± 0.049,2.33 ± 0.1
TATGAASKSGKLTQKLV [CYT1],1.64 ± 0.092,1.62 ± 0.078,1.83 ± 0.063,2.69 ± 0.11
VVVDTVECAQHCIDYLR [SMC4],3.06 ± 0.11,2.79 ± 0.22,3.01 ± 0.1,3.26 ± 0.074
KLIPKLYRYRFDPFQAV [ECM29],2.86 ± 0.14,2.77 ± 0.14,2.8 ± 0.063,2.71 ± 0.11
VQMAKILRKELSEEKEV [MCD1],3.37 ± 0.21,3.17 ± 0.27,–,2.9 ± 0.12
ISGDISDMQHIERLLKD [PRE4],2.99 ± 0.14,3.1 ± 0.11,2.99 ± 0.1,3.13 ± 0.14
KEDAKATMENIQKGKFT [SRP54],3.07 ± 0.055,3.29 ± 0.057,3.08 ± 0.051,3.09 ± 0.062
AIKWDGSSGGVIRMVVL [PRE3],2.56 ± 0.084,1.92 ± 0.071,1.75 ± 0.049,2.71 ± 0.1
LTMANLPSWSLGKWYSK [ARP7],3.17 ± 0.15,3.28 ± 0.11,2.85 ± 0.19,2.88 ± 0.17
ICSCVNRGVKLEIVYGY [RPP1],2.38 ± 0.1,2.63 ± 0.063,2 ± 0.049,2.43 ± 0.08
QQQSADHDDSTDDADDH [NSL1],2.91 ± 0.059,2.91 ± 0.064,3.01 ± 0.037,2.77 ± 0.057
HMMKRWGYQMVWAPTQK [POP1],2.15 ± 0.054,2.4 ± 0.051,2.56 ± 0.054,2.59 ± 0.059
KAEKTLKSTKHSISEAE [SMC4],2.57 ± 0.068,1.99 ± 0.058,2.5 ± 0.044,1.92 ± 0.063
GKDLSPAINYTKLKNAV [QCR2],1.91 ± 0.064,1.64 ± 0.06,1.54 ± 0.048,2.15 ± 0.094
LLYADSLTAEAMTAAEH [CYT1],2.34 ± 0.056,2.67 ± 0.054,2.58 ± 0.041,2.78 ± 0.057
WADIFAKALDGQNLKDL [RPP1A],3.08 ± 0.11,3.31 ± 0.13,2.94 ± 0.2,2.58 ± 0.24
KTLSLKSMASAFGVSVA [RPN7],–,–,1.21 ± 0.13,–
LMRELLKMMKLIVDTHV [PRP8],1.9 ± 0.083,1.34 ± 0.06,1.39 ± 0.06,2.29 ± 0.088
YAQRIGSGAPVYLTAVL [HTA1],2.35 ± 0.058,2.48 ± 0.072,2.35 ± 0.051,2.53 ± 0.097
KDSLWQSEHLEAVVDQD [FAS1],3.43 ± 0.24,3.36 ± 0.14,3.41 ± 0.09,3.46 ± 0.088
MAHENVWFSHPRRYGKG [RPS29A],3.39 ± 0.24,2.95 ± 0.17,3.18 ± 0.23,3.18 ± 0.14
